Reference: article PMC8191759

Experiments:
Assay in all cases: cross-linking
[1] = biological target: NSP8 F92A (SARS-CoV-2)
[2] = biological target: NSP8 M90A (SARS-CoV-2)
[3] = biological target: NSP8 M94A (SARS-CoV-2)

NSP8 F92A (natural protein) gave a stoichiometry N [1] of 2.
Work on NSP8 M90A (natural protein) yielded a stoichiometry N [2] of 2.
NSP8 M94A (natural protein) was tested, and the stoichiometry N [3] was 2.
